Test results taken from PMC9875641, “Ophthalmic Solution of Smart Supramolecular Peptides to Capture Semaphorin 4D against Diabetic Retinopathy” (Advanced Science, 2022).

Molecular target: soluble semaphorin 4D
Assay: SPR; surface plasmon resonance imaging (SPRi) of TPs and sSema4D; who was immobilised and the conditions are not told in the main text
Settings: both partners purified

Chain of soluble semaphorin 4D (chain, as listed by the source): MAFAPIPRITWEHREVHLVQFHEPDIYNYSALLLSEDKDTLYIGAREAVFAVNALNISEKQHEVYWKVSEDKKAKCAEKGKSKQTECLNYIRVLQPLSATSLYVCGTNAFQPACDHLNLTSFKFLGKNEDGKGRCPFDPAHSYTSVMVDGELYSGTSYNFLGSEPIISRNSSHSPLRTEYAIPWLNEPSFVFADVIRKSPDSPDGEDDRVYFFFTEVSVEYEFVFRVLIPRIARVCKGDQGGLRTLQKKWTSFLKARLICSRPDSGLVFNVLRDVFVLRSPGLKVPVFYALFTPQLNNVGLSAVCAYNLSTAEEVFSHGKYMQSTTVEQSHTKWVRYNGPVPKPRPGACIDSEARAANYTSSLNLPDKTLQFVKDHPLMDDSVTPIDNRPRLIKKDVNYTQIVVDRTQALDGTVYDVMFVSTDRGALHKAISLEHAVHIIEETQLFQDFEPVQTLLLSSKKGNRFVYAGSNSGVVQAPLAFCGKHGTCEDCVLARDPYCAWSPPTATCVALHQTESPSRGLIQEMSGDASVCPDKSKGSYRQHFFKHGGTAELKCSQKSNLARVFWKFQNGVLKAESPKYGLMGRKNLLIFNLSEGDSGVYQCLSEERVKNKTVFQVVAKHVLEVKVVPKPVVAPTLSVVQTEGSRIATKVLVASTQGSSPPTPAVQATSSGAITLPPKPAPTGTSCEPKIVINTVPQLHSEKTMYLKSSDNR

Row | Kd | Binder
1 | 41.7 nM | KQKRPRH (Limits taken by convention as the full extracellular domain after the signal peptide. Species is not printed for the assayed protein; human is assumed, mouse O09126 24-733 is the alternative. Natural) [TP-2]
2 | 14.6 nM | KNKAAKG (Limits taken by convention as the full extracellular domain after the signal peptide. Species is not printed for the assayed protein; human is assumed, mouse O09126 24-733 is the alternative. Natural) [TP-7]
